{"source": "paper PMC8216470", "about": "“The structure of the mouse ADAT2/ADAT3 complex reveals the molecular basis for mammalian tRNA wobble adenosine-to-inosine deamination” (Nucleic Acids Research, 2021)", "proteins": {"B1": {"name": "Escherichia coli TadA (enzyme, E. coli, UniProt P68398 1-167, looked up)", "chain": "MSEVEFSHEYWMRHALTLAKRAWDEREVPVGAVLVHNNRVIGEGWNRPIGRHDPTAHAEIMALRQGGLVMQNYRLIDATLYVTLEPCVMCAGAMIHSRIGRVVFGARDAKTGAAGSLMDVLHHPGMNHRVEITEGILADECAALLSDFFRMRRQEIKAQKKAQSSTD", "notes": "tRNA-specific adenosine deaminase TadA, Escherichia coli; also called E. coli TadA; source: produced and purified using the same protocol as for the ADAT complex (E. coli BL21(DE3); Talon, 3C protease, HiTrap Q, Superdex 200)"}, "B2": {"name": "mouse ADAT2 (enzyme, UniProt Q6P6J0 1-191, looked up)", "chain": "MEEKVESTTTPDGPCVVSVQETEKWMEEAMRMAKEALENIEVPVGCLMVYNNEVVGKGRNEVNQTKNATRHAEMVAIDQVLDWCHQHGQSPSTVFEHTVLYVTVEPCIMCAAALRLMKIPLVVYGCQNERFGGCGSVLNIASADLPNTGRPFQCIPGYRAEEAVELLKTFYKQENPNAPKSKVRKKDCQKS", "notes": "tRNA-specific adenosine deaminase 2 (ADAT2), mouse, full-length gene amplified from E16.5 cortices, NCBI NM_025748.4; cloned in pnCS, which codes for no fusion tag; residues 11-176 seen in the electron density; the untagged pnCS construct is told only for the co-expression; also called A2; ADAT2/ADAT2 (homodimer, when produced alone); source: E. coli BL21(DE3), co-expressed with ADAT3, purified …"}}, "biological_target": "the molecule itself", "experiment": "SEC; oligomeric state of the protein produced alone, as assessed by size exclusion chromatography"}
{"protein": "B1", "values": [{"measurement": "stoichiometry N", "result": 2}]}
{"protein": "B2", "values": [{"measurement": "stoichiometry N", "result": 2}]}
